From the supplement of paper PMC7125110 come the findings set out here.

Sequences and labels used below:
B1: glmS ribozyme (parent)
chain: AUAAAAGCGCCAGAACUACAGAAAUGUAGUUGACGAGGAGGAGGUUUAUCGAAUUUUCGGCGGAUGCCUCCAAA

What all share (conditions): with glucosamine-6-phosphate
Variants of B1 are the subject of data set [1]. Put plainly: self-cleavage kobs at 40 uM GlcN6P; higher = faster cleavage; RNA array. A digest of the protocol:
(§1)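 Sequenced MiSeq chips were the platform: E. coli RNA polymerase transcribed barcoded ribozyme variants on them in situ, and a hybridised Cy3 probe tracked these at 37 °C. After glucosamine-6-phosphate (40 μM to 10 mM) in HEPES/KCl/Mg(OAc)2 buffer was flowed in, tiles were imaged over ~14 h. Signals normalised to baseline and to non-cleaving reference variants were reduced to per-tile medians and fit to one- or two-exponential decays to obtain kobs. kcat and KM were derived through weighted Michaelis–Menten fits across concentrations.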

Data set [2] covers variants of B1. Nature of the data set: self-cleavage kobs at 10000 uM GlcN6P; higher = faster cleavage; RNA array. A digest of the protocol: as §1
In data set [3] the parent is B1. Put plainly: self-cleavage kobs at 640 uM GlcN6P; higher = faster cleavage; RNA array. A digest of the protocol:
as §1

Data set [4] covers variants of B1. Put plainly: self-cleavage kobs at 2500 uM GlcN6P; higher = faster cleavage; RNA array. A digest of the protocol:
as §1

In data set [5] the parent is B1. Nature of the data set: self-cleavage kobs at 160 uM GlcN6P; higher = faster cleavage; RNA array. A digest of the protocol:
as §1

± gives the standard error. Variants at the floor of the assay were thinned out.

A6C G9C C11U C34G G38A U55C G59A C67U: in the data set with glucosamine-6-phosphate [1], the “self-cleavage kobs at 40 uM GlcN6P” value is under 1e-05 s⁻¹. For the same variant, the “self-cleavage kobs at 10000 uM GlcN6P” value with glucosamine-6-phosphate [2] is under 1e-05 s⁻¹.
Take G7C G29U G32U A64C: in the data set with glucosamine-6-phosphate [1], the “self-cleavage kobs at 40 uM GlcN6P” value is under 1e-05 s⁻¹.
As for G32U A36U U46G A48U U56C G60U C61U, the “self-cleavage kobs at 40 uM GlcN6P” value with glucosamine-6-phosphate [1] was under 1e-05 s⁻¹. For the same variant, the “self-cleavage kobs at 640 uM GlcN6P” value in the data set with glucosamine-6-phosphate [3] is under 1e-05 s⁻¹. Moreover, the “self-cleavage kobs at 10000 uM GlcN6P” value in the data set with glucosamine-6-phosphate [2] was under 1e-05 s⁻¹.
Consider G41C C50U, for which the “self-cleavage kobs at 40 uM GlcN6P” value with glucosamine-6-phosphate [1] was under 1e-05 s⁻¹. Moreover, the “self-cleavage kobs at 640 uM GlcN6P” value with glucosamine-6-phosphate [3] was under 1e-05 s⁻¹. Further, in the data set with glucosamine-6-phosphate [4], the “self-cleavage kobs at 2500 uM GlcN6P” value is under 1e-05 s⁻¹. Also, the “self-cleavage kobs at 10000 uM GlcN6P” value with glucosamine-6-phosphate [2] is under 1e-05 s⁻¹.
As for U31A U49A C61U C70G, the “self-cleavage kobs at 40 uM GlcN6P” value in the data set with glucosamine-6-phosphate [1] was under 1e-05 s⁻¹.
Turning to A6U U57G, the “self-cleavage kobs at 40 uM GlcN6P” value in the data set with glucosamine-6-phosphate [1] is under 1e-05 s⁻¹.
A36C C50A G62C: the “self-cleavage kobs at 40 uM GlcN6P” value in the data set with glucosamine-6-phosphate [1] was under 1e-05 s⁻¹.
Take A6G C11U A33U G60U: the “self-cleavage kobs at 40 uM GlcN6P” value in the data set with glucosamine-6-phosphate [1] was under 1e-05 s⁻¹. Moreover, the “self-cleavage kobs at 640 uM GlcN6P” value with glucosamine-6-phosphate [3] was under 1e-05 s⁻¹. Moreover, the “self-cleavage kobs at 2500 uM GlcN6P” value in the data set with glucosamine-6-phosphate [4] is under 1e-05 s⁻¹. The “self-cleavage kobs at 10000 uM GlcN6P” value with glucosamine-6-phosphate [2] is under 1e-05 s⁻¹.
Take A14C A36C G63A U65C: in the data set with glucosamine-6-phosphate [1], the “self-cleavage kobs at 40 uM GlcN6P” value is under 1e-05 s⁻¹. Besides, in the data set with glucosamine-6-phosphate [5], the “self-cleavage kobs at 160 uM GlcN6P” value is under 1e-05 s⁻¹. Besides, the “self-cleavage kobs at 10000 uM GlcN6P” value with glucosamine-6-phosphate [2] is under 1e-05 s⁻¹.
As to A15C G37A G41C U69G, the “self-cleavage kobs at 40 uM GlcN6P” value with glucosamine-6-phosphate [1] is under 1e-05 s⁻¹. Besides, the “self-cleavage kobs at 10000 uM GlcN6P” value in the data set with glucosamine-6-phosphate [2] is under 1e-05 s⁻¹.
For the variant A14G G40A, in the data set with glucosamine-6-phosphate [1], the “self-cleavage kobs at 40 uM GlcN6P” value worked out at 0.000801 ± 0.00011 s⁻¹. Also, the “self-cleavage kobs at 160 uM GlcN6P” value with glucosamine-6-phosphate [5] was 0.00119 ± 0.00039 s⁻¹. Also, the “self-cleavage kobs at 640 uM GlcN6P” value in the data set with glucosamine-6-phosphate [3] was 0.0045 ± 0.00098 s⁻¹. In addition, the “self-cleavage kobs at 2500 uM GlcN6P” value with glucosamine-6-phosphate [4] worked out at 0.00484 ± 0.0011 s⁻¹. The “self-cleavage kobs at 10000 uM GlcN6P” value with glucosamine-6-phosphate [2] amounted to 0.0666 ± 0.029 s⁻¹.
Consider G7A U69G, for which the “self-cleavage kobs at 40 uM GlcN6P” value in the data set with glucosamine-6-phosphate [1] came to 0.000261 ± 4.3e-05 s⁻¹. The “self-cleavage kobs at 640 uM GlcN6P” value with glucosamine-6-phosphate [3] turned out to be 7.58e-05 ± 3.5e-05 s⁻¹. For the same variant, the “self-cleavage kobs at 10000 uM GlcN6P” value with glucosamine-6-phosphate [2] came to 0.000569 ± 0.00011 s⁻¹.
G29A G66A: in the data set with glucosamine-6-phosphate [1], the “self-cleavage kobs at 40 uM GlcN6P” value came out at 7.16e-05 ± 1.8e-05 s⁻¹. Besides, in the data set with glucosamine-6-phosphate [2], the “self-cleavage kobs at 10000 uM GlcN6P” value was found to be 0.00305 ± 0.00076 s⁻¹.
Turning to A14U G43A U49A C58U, in the data set with glucosamine-6-phosphate [1], the “self-cleavage kobs at 40 uM GlcN6P” value is under 1e-05 s⁻¹. Also, the “self-cleavage kobs at 10000 uM GlcN6P” value with glucosamine-6-phosphate [2] is under 1e-05 s⁻¹.
Turning to C50G A53C C67G, in the data set with glucosamine-6-phosphate [1], the “self-cleavage kobs at 40 uM GlcN6P” value stood at 7.76e-05 ± 2.5e-05 s⁻¹. Also, the “self-cleavage kobs at 160 uM GlcN6P” value in the data set with glucosamine-6-phosphate [5] is 0.000121 ± 2.6e-05 s⁻¹. In the data set with glucosamine-6-phosphate [3], the “self-cleavage kobs at 640 uM GlcN6P” value was 0.000198 ± 6.2e-05 s⁻¹. The “self-cleavage kobs at 2500 uM GlcN6P” value with glucosamine-6-phosphate [4] was 0.000336 ± 0.00012 s⁻¹. In addition, the “self-cleavage kobs at 10000 uM GlcN6P” value with glucosamine-6-phosphate [2] was found to be 5.98e-05 ± 1.9e-05 s⁻¹.
For A14G A36U G43U, the “self-cleavage kobs at 40 uM GlcN6P” value with glucosamine-6-phosphate [1] is under 1e-05 s⁻¹. In addition, the “self-cleavage kobs at 10000 uM GlcN6P” value in the data set with glucosamine-6-phosphate [2] is under 1e-05 s⁻¹.
In the case of C10U G60U C67U, in the data set with glucosamine-6-phosphate [1], the “self-cleavage kobs at 40 uM GlcN6P” value is under 1e-05 s⁻¹. The “self-cleavage kobs at 160 uM GlcN6P” value with glucosamine-6-phosphate [5] was under 1e-05 s⁻¹. The “self-cleavage kobs at 640 uM GlcN6P” value with glucosamine-6-phosphate [3] was under 1e-05 s⁻¹. Besides, the “self-cleavage kobs at 10000 uM GlcN6P” value with glucosamine-6-phosphate [2] is under 1e-05 s⁻¹.
On to C34U G40A, for which the “self-cleavage kobs at 40 uM GlcN6P” value with glucosamine-6-phosphate [1] was under 1e-05 s⁻¹. Also, the “self-cleavage kobs at 2500 uM GlcN6P” value with glucosamine-6-phosphate [4] is under 1e-05 s⁻¹. In addition, the “self-cleavage kobs at 10000 uM GlcN6P” value with glucosamine-6-phosphate [2] was under 1e-05 s⁻¹.
Take A14G U47G: the “self-cleavage kobs at 40 uM GlcN6P” value with glucosamine-6-phosphate [1] amounted to 0.00069 ± 9.9e-05 s⁻¹. The “self-cleavage kobs at 160 uM GlcN6P” value with glucosamine-6-phosphate [5] came to 0.00132 ± 0.0004 s⁻¹. The “self-cleavage kobs at 640 uM GlcN6P” value with glucosamine-6-phosphate [3] came to 0.00356 ± 0.00073 s⁻¹. Moreover, in the data set with glucosamine-6-phosphate [4], the “self-cleavage kobs at 2500 uM GlcN6P” value worked out at 0.0139 ± 0.0037 s⁻¹. Moreover, the “self-cleavage kobs at 10000 uM GlcN6P” value with glucosamine-6-phosphate [2] amounted to 0.0324 ± 0.0073 s⁻¹.
Turning to A6C G62A, the “self-cleavage kobs at 40 uM GlcN6P” value with glucosamine-6-phosphate [1] is under 1e-05 s⁻¹. Further, in the data set with glucosamine-6-phosphate [5], the “self-cleavage kobs at 160 uM GlcN6P” value is under 1e-05 s⁻¹. In addition, the “self-cleavage kobs at 640 uM GlcN6P” value in the data set with glucosamine-6-phosphate [3] is under 1e-05 s⁻¹.
Turning to G35C U49A, the “self-cleavage kobs at 40 uM GlcN6P” value with glucosamine-6-phosphate [1] was under 1e-05 s⁻¹. For the same variant, in the data set with glucosamine-6-phosphate [3], the “self-cleavage kobs at 640 uM GlcN6P” value is under 1e-05 s⁻¹. Besides, in the data set with glucosamine-6-phosphate [4], the “self-cleavage kobs at 2500 uM GlcN6P” value was under 1e-05 s⁻¹.
On to G29U G40A U45A, for which the “self-cleavage kobs at 40 uM GlcN6P” value in the data set with glucosamine-6-phosphate [1] is 5.2e-05 ± 1.6e-05 s⁻¹. Moreover, in the data set with glucosamine-6-phosphate [3], the “self-cleavage kobs at 640 uM GlcN6P” value is 0.00011 ± 2.8e-05 s⁻¹. The “self-cleavage kobs at 2500 uM GlcN6P” value with glucosamine-6-phosphate [4] is 0.000444 ± 8.6e-05 s⁻¹. The “self-cleavage kobs at 10000 uM GlcN6P” value in the data set with glucosamine-6-phosphate [2] stood at 0.000439 ± 0.00011 s⁻¹.
With G44C U65G, in the data set with glucosamine-6-phosphate [1], the “self-cleavage kobs at 40 uM GlcN6P” value is under 1e-05 s⁻¹. The “self-cleavage kobs at 160 uM GlcN6P” value in the data set with glucosamine-6-phosphate [5] is under 1e-05 s⁻¹. For the same variant, the “self-cleavage kobs at 640 uM GlcN6P” value with glucosamine-6-phosphate [3] was under 1e-05 s⁻¹.
